The text below walks through data of patent US20220363757A1 (SYMPHOGEN A S, published 2022).

For test [1], the target named is T1, human LAG-3 ECD human IgG1 Fc fusion (human, UniProt P18627 23-450).
T1 construct: not shown: human IgG1 Fc, AA P101-K330
T1 sequence: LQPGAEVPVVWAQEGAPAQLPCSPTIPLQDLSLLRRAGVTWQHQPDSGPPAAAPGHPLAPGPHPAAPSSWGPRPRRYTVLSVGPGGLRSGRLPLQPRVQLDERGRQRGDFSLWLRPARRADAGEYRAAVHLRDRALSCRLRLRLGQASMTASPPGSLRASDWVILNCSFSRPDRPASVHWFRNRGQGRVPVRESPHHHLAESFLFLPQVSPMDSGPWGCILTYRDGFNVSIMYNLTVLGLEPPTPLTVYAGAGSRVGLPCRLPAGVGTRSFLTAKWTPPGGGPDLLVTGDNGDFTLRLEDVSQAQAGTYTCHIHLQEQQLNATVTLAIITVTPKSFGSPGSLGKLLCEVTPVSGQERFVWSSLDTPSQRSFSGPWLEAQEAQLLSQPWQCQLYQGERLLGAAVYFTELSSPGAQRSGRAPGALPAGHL
The test is described as follows: SPR, Fab over captured LAG-3 ECD-Fc. Background: Surface plasmon resonance follows binding to a sensor surface in real time, without labels.

The target of test [2] is T2, mouse LAG-3 ECD (mouse, UniProt Q61790 24-442).
T2 sequence: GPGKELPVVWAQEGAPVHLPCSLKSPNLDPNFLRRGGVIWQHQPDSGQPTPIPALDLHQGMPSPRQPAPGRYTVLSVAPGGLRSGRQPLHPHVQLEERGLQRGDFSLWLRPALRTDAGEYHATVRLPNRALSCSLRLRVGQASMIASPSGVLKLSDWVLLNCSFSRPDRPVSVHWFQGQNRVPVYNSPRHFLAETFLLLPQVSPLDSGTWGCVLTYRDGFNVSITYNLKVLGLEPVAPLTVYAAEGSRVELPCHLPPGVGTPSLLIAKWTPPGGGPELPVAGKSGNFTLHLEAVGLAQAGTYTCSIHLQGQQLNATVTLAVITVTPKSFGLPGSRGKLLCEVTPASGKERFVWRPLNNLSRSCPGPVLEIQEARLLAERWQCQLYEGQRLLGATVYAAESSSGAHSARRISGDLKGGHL
Kind of test: SPR, Fab over captured LAG-3 ECD.
Protocol: Antigens were purified using standard procedures and captured onto an G-a-hu-IgG Fc SensEye® (Ssens BV, The Netherlands) for 15 minutes using a Continuous Flow Microspotter (CFM, Wasatch Microfluidics, Salt Lake City, US). After spotting, the SensEye® was positioned in the IBIS MX96 biosensor and remaining capture sites blocked. […] Fab association was performed for 15 minutes and antigen dissociation was performed for 15 minutes. The recorded binding responses were fitted to a simple Langmuir 1:1 binding model with Scrubber 2 software for calculation of the on-rate (kon or ka), off-rate (koff or kd) and affinity (KL) constants.

The target in test [3] is T3, human LAG-3 domain 1-2 Fc fusion, point mutation #62 Q121A (human, UniProt P18627 23-266).
T3 construct: not shown: human IgG1 Fc, AA P101-K330
T3 sequence: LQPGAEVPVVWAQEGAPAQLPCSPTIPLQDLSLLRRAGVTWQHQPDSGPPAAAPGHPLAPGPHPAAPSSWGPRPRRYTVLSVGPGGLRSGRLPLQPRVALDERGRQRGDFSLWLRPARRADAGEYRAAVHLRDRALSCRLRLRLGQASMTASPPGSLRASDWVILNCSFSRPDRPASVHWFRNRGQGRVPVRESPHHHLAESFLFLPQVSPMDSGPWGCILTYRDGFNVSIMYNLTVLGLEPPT
Kind of test: SPR, Fab over captured mutant LAG-3-Fc.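 Further: fc fusion variants captured on anti-human IgG Fc sensor, Fab injected with association then dissociation phases, KD obtained from Langmuir one-to-one fit.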

The target in test [4] is T4, human LAG-3 domain 1-2 Fc fusion, point mutation #49 G105A (human, UniProt P18627 23-266).
T4 construct: not shown: human IgG1 Fc, AA P101-K330
T4 sequence: T3 sequence with G83A, A99Q
The test is described as follows: SPR, Fab over captured mutant LAG-3-Fc.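 Further: fc fusion variants captured on anti-human IgG Fc sensor, Fab injected with association then dissociation phases, KD obtained from Langmuir one-to-one fit.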

Test [5] deals with T5, human LAG-3 domain 1-2 Fc fusion, point mutation #9 D52A (human, UniProt P18627 23-266).
T5 construct: not shown: human IgG1 Fc, AA P101-K330
T5 sequence: T3 sequence with D30A, A99Q
Kind of test: SPR, Fab over captured mutant LAG-3-Fc.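 Further: fc fusion variants captured on anti-human IgG Fc sensor, Fab injected with association then dissociation phases, KD obtained from Langmuir one-to-one fit.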

Test [6] has as its target T6, human LAG-3 domain 1-2 Fc fusion, point mutation #64 E124A (human, UniProt P18627 23-266).
T6 construct: not shown: human IgG1 Fc, AA P101-K330
T6 sequence: T3 sequence with A99Q, E102A
Kind of test: SPR, Fab over captured mutant LAG-3-Fc.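 Further: fc fusion variants captured on anti-human IgG Fc sensor, Fab injected with association then dissociation phases, KD obtained from Langmuir one-to-one fit.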

In test [7] the target is T7, human LAG-3 domain 1-2 Fc fusion, point mutation #53 L109A (human, UniProt P18627 23-266).
T7 construct: not shown: human IgG1 Fc, AA P101-K330
T7 sequence: T3 sequence with L87A, A99Q
Kind of test: SPR, Fab over captured mutant LAG-3-Fc.

Test [8] concerns the target T8, human LAG-3 domain 1-2 Fc fusion, point mutation #66 G126A (human, UniProt P18627 23-266).
T8 construct: not shown: human IgG1 Fc, AA P101-K330
T8 sequence: T3 sequence with A99Q, G104A
The test is described as follows: SPR, Fab over captured mutant LAG-3-Fc.

Numbering of substitutions follows the chain as printed.

B1: Fab fragment of antibody 15532 (Fab, V domains shown, not shown: a dimerising Fc or GST)
VH: QVQLQQWGAGLLRPSETLSLTCAVYGESFSGYYWNWIRQPPGKGLEWIGEINHSGSTNYNPSLKSRVTISVDTSKTQFSLKLSSVTAADTAVYYCARGWDLLDWNDYWNEYWGQGTLVTVSS
VL: EIVLTQSPATLSLSPGERATLSCRASQSVSSYLAWYQQKPGQAPRLLIYDASNRATGIPARFSGSGSGTDFTLTISSLEPEDFAVYYCQQRSNWPLTFGGGTKVEIKR
notes: monomeric Fab made by GingisKHAN digestion of the IgG1
Consider B1, for which, in test [1], the Kd (usually the concentration at which binding is half-saturated) stood at 5.8 nM. The koff (as a rule, a measure of how fast the partners let go of each other) in test [1] worked out at 0.00065 s⁻¹. For the same molecule, in test [1], the kon (in general, the rate constant with which the complex forms) worked out at 110000 M⁻¹ s⁻¹. For the same molecule, the binding result in test [2] is “no binding (tested: 1000 nM)”. Besides, the “KD mutant/KD wild type” value in test [3] is 0.9 fold; in test [4] it was 1.1 fold; in test [5], 1.7 fold; in test [6] it was 1.8 fold; in test [7], 1.1 fold; in test [8] it was 0.9 fold.

B2: Fab fragment of antibody 15431 (Fab, V domains shown, not shown: a dimerising Fc or GST)
VH: QVQLQQSGPGLVKPSQTLSLTCAISGDSVSSNSAAWNWIRQSPSRGLEWLGRTYYRSKWYNDYAVSVKSRITINPDTSKNQFSLQLNSVTPEDTAVYYCARDDDWNDFDYWGQGTLVTVSS
VL: B1 VL
notes: as for B1
The molecule B2 gave a Kd in test [1] of 30 nM. The koff in test [1] was found to be 0.002 s⁻¹. Moreover, the kon in test [1] was determined as 66000 M⁻¹ s⁻¹. Besides, the values for the binding result in test [2], in test [5] and in test [6] were “no binding (tested: 1000 nM)”, “no binding (tested: 300 nM)” and “no binding (tested: 300 nM)”, respectively. Also, the “KD mutant/KD wild type” value in test [3] was 1 fold; in test [4], 0.4 fold; in test [7], 1 fold; in test [8], 0.9 fold.

B3: Fab fragment of antibody 15011 (Fab, V domains shown, not shown: a dimerising Fc or GST)
VH: EVQLLESGGGLVQPGGSLRLSCAASGFDFRSYAMMWVRQAPGKGLEWVGGINGEVGGSNTYYAPAVKGRATISRDNSKNTLYLQMNSLRAEDTAVYYCVKGAGACGICNDDIDAWGQGTLVTVSS
VL: SYELTQDPAVSVALGQTVRITCSGAGSYAGSYYYGWHQQKPGQAPVTVIYDNDKRPSNIPDRFSGSSSGNTASLTITGAQAEDEADYYCGSTNDNDDGGLFGSGTKVTVLG
notes: as for B1
B3: the Kd in test [1] was 4.3 nM; in test [2], 33 nM. In addition, the koff amounted to 0.00048 s⁻¹ in test [1] and 0.0023 s⁻¹ in test [2]. Further, the results for the kon in test [1] and in test [2] were 110000 M⁻¹ s⁻¹ and 72000 M⁻¹ s⁻¹, respectively. Moreover, the “KD mutant/KD wild type” value in test [3] was determined as 0.9 fold; in test [4] it was 1.6 fold; in test [5], 0.7 fold; in test [6], 0.8 fold; in test [7] it was 84.2 fold; in test [8], 0.9 fold.

B4: Fab fragment of antibody 15572 (Fab, V domains shown, not shown: a dimerising Fc or GST)
VH: QLQLQESGPGLVKPSETLSLTCTVSGDSISSSSYYWGWIRQPPGKGLEWIGSIFYSGNTYYNPSLKSRVTISVDTSKNQFSLKLSSVTAADTAVYYCAREDDFLTDYYGAFDIWGQGTMVTVSS
VL: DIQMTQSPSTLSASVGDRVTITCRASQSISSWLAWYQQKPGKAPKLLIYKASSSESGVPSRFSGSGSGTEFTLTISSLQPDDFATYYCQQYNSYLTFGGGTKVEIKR
notes: as for B1
As to B4, the Kd in test [1] was determined as 27 nM. The same molecule showed an off-rate constant (koff) in test [1] of 0.003 s⁻¹. In test [1], this molecule gave a kon of 110000 M⁻¹ s⁻¹. Further, the binding result in test [2] is recorded as “no binding (tested: 1000 nM)”; in test [5] it was “no binding (tested: 300 nM)”; in test [6], “no binding (tested: 300 nM)”. Also, the “KD mutant/KD wild type” value was determined as 0.6 fold in test [3], 0.4 fold in test [4], 1 fold in test [7] and 0.9 fold in test [8].
